US9957297B2, “Template-fixed peptidomimetics as inhibitors of FPR1” (POLYPHOR AG, priority 2011, dated 2018)
Bridges are numbered along the chain shown (N, C = ends). [ ]: non-standard residue; d: D form. hSer = N[C@@H](CCO)C(=O)O; Dab = NCC[C@H](N)C(=O)O

B1: cyclo(-Tyr-His-Lys-Cys-Trp-Gly-^DAla-Trp-Thr-Ile-Cys-Tyr-Glu-Lys-^DPro-Pro-) (peptide)
peptide: cyclo(YHKCWG[dA]WTICYEK[dP]P)
modifications: disulfide 4-11
SMILES: CC[C@H](C)[C@@H]1NC(=O)[C@H]([C@@H](C)O)NC(=O)[C@H](Cc2c[nH]c3ccccc23)NC(=O)[C@@H](C)NC(=O)CNC(=O)[C@H](Cc2c[nH]c3ccccc23)NC(=O)[C@@H]2CSSC[C@H](NC1=O)C(=O)N[C@@H](Cc1ccc(O)cc1)C(=O)N[C@@H](CCC(=O)O)C(=O)N[C@@H](CCCCN)C(=O)N1CCC[C@@H]1C(=O)N1CCC[C@H]1C(=O)N[C@@H](Cc1ccc(O)cc1)C(=O)N[C@@H](Cc1c[nH]cn1)C(=O)N[C@@H](CCCCN)C(=O)N2
B2: cyclo(-Dab-His-Lys-Cys-His-Gly-^DPro-Trp-Thr-Ile-Cys-Tyr-Glu-Lys-^DPro-Pro-) (peptide)
peptide: cyclo([Dab]HKCHG[dP]WTICYEK[dP]P)
modifications: disulfide 4-11
SMILES: CC[C@H](C)[C@@H]1NC(=O)[C@H]([C@@H](C)O)NC(=O)[C@H](Cc2c[nH]c3ccccc23)NC(=O)[C@H]2CCCN2C(=O)CNC(=O)[C@H](Cc2c[nH]cn2)NC(=O)[C@@H]2CSSC[C@H](NC1=O)C(=O)N[C@@H](Cc1ccc(O)cc1)C(=O)N[C@@H](CCC(=O)O)C(=O)N[C@@H](CCCCN)C(=O)N1CCC[C@@H]1C(=O)N1CCC[C@H]1C(=O)N[C@@H](CCN)C(=O)N[C@@H](Cc1c[nH]cn1)C(=O)N[C@@H](CCCCN)C(=O)N2
B3: cyclo(-His-His-Lys-Cys-His-Gly-^DPro-Trp-Thr-Ile-Cys-Tyr-Glu-Lys-^DPro-Pro-) (peptide)
peptide: cyclo(HHKCHG[dP]WTICYEK[dP]P)
modifications: disulfide 4-11
SMILES: CC[C@H](C)[C@@H]1NC(=O)[C@H]([C@@H](C)O)NC(=O)[C@H](Cc2c[nH]c3ccccc23)NC(=O)[C@H]2CCCN2C(=O)CNC(=O)[C@H](Cc2c[nH]cn2)NC(=O)[C@@H]2CSSC[C@H](NC1=O)C(=O)N[C@@H](Cc1ccc(O)cc1)C(=O)N[C@@H](CCC(=O)O)C(=O)N[C@@H](CCCCN)C(=O)N1CCC[C@@H]1C(=O)N1CCC[C@H]1C(=O)N[C@@H](Cc1c[nH]cn1)C(=O)N[C@@H](Cc1c[nH]cn1)C(=O)N[C@@H](CCCCN)C(=O)N2
B4: cyclo(-Tyr-His-Lys-Cys-Trp-Gly-^DPro-Trp-Thr-Ile-Cys-Tyr-Dab-Lys-^DPro-Pro-) (peptide)
peptide: cyclo(YHKCWG[dP]WTICY[Dab]K[dP]P)
modifications: disulfide 4-11
SMILES: CC[C@H](C)[C@@H]1NC(=O)[C@H]([C@@H](C)O)NC(=O)[C@H](Cc2c[nH]c3ccccc23)NC(=O)[C@H]2CCCN2C(=O)CNC(=O)[C@H](Cc2c[nH]c3ccccc23)NC(=O)[C@@H]2CSSC[C@H](NC1=O)C(=O)N[C@@H](Cc1ccc(O)cc1)C(=O)N[C@@H](CCN)C(=O)N[C@@H](CCCCN)C(=O)N1CCC[C@@H]1C(=O)N1CCC[C@H]1C(=O)N[C@@H](Cc1ccc(O)cc1)C(=O)N[C@@H](Cc1c[nH]cn1)C(=O)N[C@@H](CCCCN)C(=O)N2
B5: cyclo(-Tyr-His-Lys-Cys-His-Gly-^DAla-Trp-Thr-Ile-Cys-Tyr-Glu-Lys-^DPro-Pro-) (peptide)
peptide: cyclo(YHKCHG[dA]WTICYEK[dP]P)
modifications: disulfide 4-11
SMILES: CC[C@H](C)[C@@H]1NC(=O)[C@H]([C@@H](C)O)NC(=O)[C@H](Cc2c[nH]c3ccccc23)NC(=O)[C@@H](C)NC(=O)CNC(=O)[C@H](Cc2c[nH]cn2)NC(=O)[C@@H]2CSSC[C@H](NC1=O)C(=O)N[C@@H](Cc1ccc(O)cc1)C(=O)N[C@@H](CCC(=O)O)C(=O)N[C@@H](CCCCN)C(=O)N1CCC[C@@H]1C(=O)N1CCC[C@H]1C(=O)N[C@@H](Cc1ccc(O)cc1)C(=O)N[C@@H](Cc1c[nH]cn1)C(=O)N[C@@H](CCCCN)C(=O)N2
B6: cyclo(-Tyr-His-Lys-Cys-His-Gly-^DPro-Trp-Thr-Ile-Cys-Tyr-Hse-Lys-^DPro-Pro-) (peptide)
peptide: cyclo(YHKCHG[dP]WTICY[hSer]K[dP]P)
modifications: disulfide 4-11
SMILES: CC[C@H](C)[C@@H]1NC(=O)[C@H]([C@@H](C)O)NC(=O)[C@H](Cc2c[nH]c3ccccc23)NC(=O)[C@H]2CCCN2C(=O)CNC(=O)[C@H](Cc2c[nH]cn2)NC(=O)[C@@H]2CSSC[C@H](NC1=O)C(=O)N[C@@H](Cc1ccc(O)cc1)C(=O)N[C@@H](CCO)C(=O)N[C@@H](CCCCN)C(=O)N1CCC[C@@H]1C(=O)N1CCC[C@H]1C(=O)N[C@@H](Cc1ccc(O)cc1)C(=O)N[C@@H](Cc1c[nH]cn1)C(=O)N[C@@H](CCCCN)C(=O)N2
B7: cyclo(-Asp-His-Lys-Cys-His-Gly-^DPro-Trp-Thr-Ile-Cys-Tyr-Glu-Lys-^DPro-Pro-) (peptide)
peptide: cyclo(DHKCHG[dP]WTICYEK[dP]P)
modifications: disulfide 4-11
SMILES: CC[C@H](C)[C@@H]1NC(=O)[C@H]([C@@H](C)O)NC(=O)[C@H](Cc2c[nH]c3ccccc23)NC(=O)[C@H]2CCCN2C(=O)CNC(=O)[C@H](Cc2c[nH]cn2)NC(=O)[C@@H]2CSSC[C@H](NC1=O)C(=O)N[C@@H](Cc1ccc(O)cc1)C(=O)N[C@@H](CCC(=O)O)C(=O)N[C@@H](CCCCN)C(=O)N1CCC[C@@H]1C(=O)N1CCC[C@H]1C(=O)N[C@@H](CC(=O)O)C(=O)N[C@@H](Cc1c[nH]cn1)C(=O)N[C@@H](CCCCN)C(=O)N2
B8: cyclo(-Tyr-His-Ala-Cys-Trp-Gly-^DPro-Trp-Thr-Ile-Cys-Tyr-Gln-Lys-^DPro-Glu-) (peptide)
peptide: cyclo(YHACWG[dP]WTICYQK[dP]E)
modifications: disulfide 4-11
SMILES: CC[C@H](C)[C@@H]1NC(=O)[C@H]([C@@H](C)O)NC(=O)[C@H](Cc2c[nH]c3ccccc23)NC(=O)[C@H]2CCCN2C(=O)CNC(=O)[C@H](Cc2c[nH]c3ccccc23)NC(=O)[C@@H]2CSSC[C@H](NC1=O)C(=O)N[C@@H](Cc1ccc(O)cc1)C(=O)N[C@@H](CCC(N)=O)C(=O)N[C@@H](CCCCN)C(=O)N1CCC[C@@H]1C(=O)N[C@@H](CCC(=O)O)C(=O)N[C@@H](Cc1ccc(O)cc1)C(=O)N[C@@H](Cc1c[nH]cn1)C(=O)N[C@@H](C)C(=O)N2
B9: cyclo(-Tyr-His-Lys-Cys-His-Gly-^DPro-Trp-Thr-Leu-Cys-Tyr-Glu-Lys-^DPro-Pro-) (peptide)
peptide: cyclo(YHKCHG[dP]WTLCYEK[dP]P)
modifications: disulfide 4-11
SMILES: CC(C)C[C@@H]1NC(=O)[C@H]([C@@H](C)O)NC(=O)[C@H](Cc2c[nH]c3ccccc23)NC(=O)[C@H]2CCCN2C(=O)CNC(=O)[C@H](Cc2c[nH]cn2)NC(=O)[C@@H]2CSSC[C@H](NC1=O)C(=O)N[C@@H](Cc1ccc(O)cc1)C(=O)N[C@@H](CCC(=O)O)C(=O)N[C@@H](CCCCN)C(=O)N1CCC[C@@H]1C(=O)N1CCC[C@H]1C(=O)N[C@@H](Cc1ccc(O)cc1)C(=O)N[C@@H](Cc1c[nH]cn1)C(=O)N[C@@H](CCCCN)C(=O)N2
B10: cyclo(-Dab-His-Lys-Cys-Trp-Gly-^DPro-Trp-Thr-Ile-Cys-Tyr-Glu-Lys-^DPro-Pro-) (peptide)
peptide: cyclo([Dab]HKCWG[dP]WTICYEK[dP]P)
modifications: disulfide 4-11
SMILES: CC[C@H](C)[C@@H]1NC(=O)[C@H]([C@@H](C)O)NC(=O)[C@H](Cc2c[nH]c3ccccc23)NC(=O)[C@H]2CCCN2C(=O)CNC(=O)[C@H](Cc2c[nH]c3ccccc23)NC(=O)[C@@H]2CSSC[C@H](NC1=O)C(=O)N[C@@H](Cc1ccc(O)cc1)C(=O)N[C@@H](CCC(=O)O)C(=O)N[C@@H](CCCCN)C(=O)N1CCC[C@@H]1C(=O)N1CCC[C@H]1C(=O)N[C@@H](CCN)C(=O)N[C@@H](Cc1c[nH]cn1)C(=O)N[C@@H](CCCCN)C(=O)N2

Biological target: T1, Formyl-Peptide Receptor 1 (UniProt P21462 1-350, limits assumed)
T1 sequence (looked up): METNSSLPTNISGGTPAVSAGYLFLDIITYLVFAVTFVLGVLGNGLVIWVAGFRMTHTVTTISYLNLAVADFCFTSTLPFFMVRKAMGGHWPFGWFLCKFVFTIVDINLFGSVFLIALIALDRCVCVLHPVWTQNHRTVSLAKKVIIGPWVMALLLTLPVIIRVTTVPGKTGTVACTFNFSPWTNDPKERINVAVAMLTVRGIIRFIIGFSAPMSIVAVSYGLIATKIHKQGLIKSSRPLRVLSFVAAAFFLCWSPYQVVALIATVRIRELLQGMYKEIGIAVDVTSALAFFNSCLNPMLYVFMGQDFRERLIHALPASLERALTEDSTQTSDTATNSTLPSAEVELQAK
Assay: cell-based or functional assay

Binder	β-Arrestin IC50 [nM]
B1	69
B2	194
B3	239
B4	633
B5	77
B6	138
B7	177
B8	60
B9	153
B10	248
